Test results: patent publication US20250277048A1 (Regeneron, published 2025)
Blank lines part the entries; values can stand above or below the binder they belong to.

Columns and labels:
[1] = target: T1, human CD40 extracellular domain expressed with a C-terminal myc-myc-hexahistidine tag (human); experiment: SPR Biacore 4000, mAb captured, 25C; 25° C.
T1 construct: also called hCD40-MMH; hCD40-mmH
Description: The equilibrium dissociation constants (KD) for anti-CD40 bivalent and bispecific monoclonal antibodies (mAbs) were determined using a real-time surface plasmon resonance (SPR)-based Biacore 4000 biosensor. All binding studies were performed in 10 mM HEPES, 150 mM NaCl, 3 mM EDTA, and 0.05% v/v surfactant Tween-20, pH 7.4 (HBS-ET) running buffer at 25° C. and 37° C. The Biacore CM5 sensor surface was first derivatized by amine coupling with a monoclonal mouse anti-human Fc antibody (REGN2567) to capture anti-CD40 bivalent parental and anti-CD40×CD40 bispecific antibodies. […] The dissociation of different CD40 reagents bound to anti-CD40 bivalent parental and anti-CD40×CD40 bispecific antibodies was monitored for 10 minutes in HBS-ET running buffer. […]
(§1) The association rate (ka) and dissociation rate (kd) were determined by fitting the real-time binding sensorgrams to a 1:1 binding model with mass transport limitation using Scrubber 2.0c curve-fitting software. Binding dissociation equilibrium constant (KD) and dissociative half-life (t_{1/2}) were calculated from the kinetic rates as: KD(M)=kd/kₐ, and t_{1/2} (min)=[ln(2)/(60*kd)].

[2] = target: T1, human CD40 extracellular domain …; experiment: SPR Biacore 4000, mAb captured, 37C
Description: (§2) The equilibrium dissociation constants (KD) for anti-CD40 bivalent and bispecific monoclonal antibodies (mAbs) were determined using a real-time surface plasmon resonance (SPR)-based Biacore 4000 biosensor. All binding studies were performed in 10 mM HEPES, 150 mM NaCl, 3 mM EDTA, and 0.05% v/v surfactant Tween-20, pH 7.4 (HBS-ET) running buffer at 25° C. and 37° C. The Biacore CM5 sensor surface was first derivatized by amine coupling with a monoclonal mouse anti-human Fc antibody (REGN2567) to capture anti-CD40 bivalent parental and anti-CD40×CD40 bispecific antibodies. Different concentrations of CD40 reagents, human CD40 extracellular domain expressed with a C-terminal myc-myc-hexahistidine tag (SEQ ID NO: 1114) (“hCD40-MMH”; REGN3094; SEQ ID NO: 53), monkey CD40 extracellular domain expressed with a C-terminal myc-myc-hexahistidine tag (SEQ ID NO: 1114) (“mfCD40-MMH”; REGN3097; SEQ ID NO: 54), and mouse CD40 extracellular domain expressed with a C-terminal myc-myc-hexahistidine tag (SEQ ID NO: 1114) (“mCD40-MMH”; REGN3098; SEQ ID NO: 55), at concentrations ranging from 3.7 nM to 100 nM or 3.3 nM to 90 nM in a series of 3-fold dilutions prepared in HBS-ET running buffer were injected at a flow rate of 30 μL/min for 4 minutes or 50 μL/min for 5 minutes. The dissociation of different CD40 reagents bound to anti-CD40 bivalent parental and anti-CD40×CD40 bispecific antibodies was monitored for 10 minutes in HBS-ET running buffer. At the end of each cycle, the anti-CD40 bivalent parental and anti-CD40×CD40 bispecific antibodies capture surface was regenerated using a 12 sec injection of 20 mM H₃PO₄.
as §1

[3] = target: T2, mouse CD40 extracellular domain expressed with a C-terminal myc-myc-hexahistidine tag (mouse); experiment: SPR Biacore 4000, mAb captured, 37C
T2 construct: also called mCD40-MMH; REGN3098
T2 chain: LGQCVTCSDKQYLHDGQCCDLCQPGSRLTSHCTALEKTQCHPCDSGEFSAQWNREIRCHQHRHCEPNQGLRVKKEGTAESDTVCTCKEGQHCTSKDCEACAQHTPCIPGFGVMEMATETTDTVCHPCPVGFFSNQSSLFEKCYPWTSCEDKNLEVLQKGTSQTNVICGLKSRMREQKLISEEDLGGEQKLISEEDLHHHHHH
Description: as §2, §1

[4] = target: T3, human CD40 (hCD40) expressed on cells (human, UniProt P25942 21-277); experiment: cell-based or functional assay
[5] = target: T3, human CD40 (hCD40) expressed on cells; experiment: cell-based or functional assay; remark: listed apart in the source
[6] = target: T3, human CD40 (hCD40) expressed on cells; experiment: cell-based or functional assay; remark: listed apart in the source
[7] = target: T4, monkey CD40 extracellular domain expressed with a C-terminal myc-myc-hexahistidine tag (monkey); experiment: SPR Biacore 4000, mAb captured, 37C
T4 construct: also called mfCD40-MMH; REGN3097
T4 chain: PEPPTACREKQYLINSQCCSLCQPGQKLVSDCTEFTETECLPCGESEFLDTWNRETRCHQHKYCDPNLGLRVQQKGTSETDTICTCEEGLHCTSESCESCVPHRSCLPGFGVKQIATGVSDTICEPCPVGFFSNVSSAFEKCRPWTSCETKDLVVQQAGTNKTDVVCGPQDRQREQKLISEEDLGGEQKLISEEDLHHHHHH
Description: as §2, §1

T3 sequence (P25942 21-277): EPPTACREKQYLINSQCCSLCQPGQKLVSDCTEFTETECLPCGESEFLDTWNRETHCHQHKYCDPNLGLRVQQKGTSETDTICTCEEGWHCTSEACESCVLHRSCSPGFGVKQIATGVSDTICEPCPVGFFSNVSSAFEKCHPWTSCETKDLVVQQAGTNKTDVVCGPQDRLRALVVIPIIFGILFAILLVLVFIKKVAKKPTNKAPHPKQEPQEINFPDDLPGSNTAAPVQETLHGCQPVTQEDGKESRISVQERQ

B1: 21519P2 (antibody, human IgG4 S228P, kappa, V domains shown)
VH: QLQLQESGPGLVRPSETLSLTCSVSGASMNTNNYYWGWIRQPPGKGLEWIGSGYYNGNTYYNPSLKSRVTISVDTSKNQFSLKLNSVTAADTAVYYCARQTPPRIIGSPNIWGQGTMVTVSS
VL: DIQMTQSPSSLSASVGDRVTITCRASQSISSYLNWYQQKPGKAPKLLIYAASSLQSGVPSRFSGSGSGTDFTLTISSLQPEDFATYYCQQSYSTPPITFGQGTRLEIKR
notes: parental bivalent anti-CD40 mAb; common light chain; also called H4sH21519P2
kon [1]: 385000 M⁻¹ s⁻¹
100 nM Ag Bound [2]: 105 RU
Kd [2]: 19.4 nM
koff [2]: 0.0123 s⁻¹
kon [2]: 635000 M⁻¹ s⁻¹
t1/2 [2]: 0.9 min
100 nM Ag Bound [3]: 1.6 RU

B2: 21520P2 (antibody, human IgG4 S228P, kappa, V domains shown)
VH: EVQLVESGGGLVQPGGSLRLSCAASGFTFGSYGMAWVRQAPGKGLEWVSAISGSGDYTNYADSVKRRFTISRDNSKNTLYLQMSSLRAEDTAVYYCAKEKTGTTGYLYSGMDVWGQGTTVTVSS
VL: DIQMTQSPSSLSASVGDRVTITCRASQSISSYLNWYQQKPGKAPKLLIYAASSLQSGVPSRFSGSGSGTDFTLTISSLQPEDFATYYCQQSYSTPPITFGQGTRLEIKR
notes: parental bivalent anti-CD40 mAb; common light chain; also called H4sH21520P2
100 nM Ag Bound [2]: 67.2 RU
Kd [2]: 69.9 nM
koff [2]: 0.0803 s⁻¹
kon [2]: 1.15e+06 M⁻¹ s⁻¹
t1/2 [2]: 0.1 min
100 nM Ag Bound [3]: 0.2 RU

The next lines start with the values.

% max blockade relative to no mAb, IL-10, donor 1 [4]: 80.7%
% max blockade relative to no mAb, IL-10, donor 2 [4]: 86.9%
% max blockade relative to no mAb, IL-10, donor 3 [4]: 89.3%
% max blockade relative to no mAb, TNFa, donor 1 [5]: 44.7%
% max blockade relative to no mAb, TNFa, donor 2 [5]: 74.1%
% max blockade relative to no mAb, TNFa, donor 3 [5]: 70.4%
% max blockade relative to no mAb, IL-6, donor 1 [6]: 84%
% max blockade relative to no mAb, IL-6, donor 2 [6]: 92.7%
% max blockade relative to no mAb, IL-6, donor 3 [6]: 92.7%
100 nM Ag Bound [2]: 61.2 RU
Kd [2]: 0.101 nM
koff [2]: 0.000149 s⁻¹
kon [2]: 1.47e+06 M⁻¹ s⁻¹
t1/2 [2]: 77.5 min
B3: REGN16431 (bispecific antibody, human IgG4 S228P, kappa)
heavy 1: QLQLQESGPGLVRPSETLSLTCSVSGASMNTNNYYWGWIRQPPGKGLEWIGSGYYNGNTYYNPSLKSRVTISVDTSKNQFSLKLNSVTAADTAVYYCARQTPPRIIGSPNIWGQGTMVTVSSASTKGPSVFPLAPCSRSTSESTAALGCLVKDYFPEPVTVSWNSGALTSGVHTFPAVLQSSGLYSLSSVVTVPSSSLGTKTYTCNVDHKPSNTKVDKRVESKYGPPCPPCPAPPVAGPSVFLFPPKPKDTLMISRTPEVTCVVVDVSQEDPEVQFNWYVDGVEVHNAKTKPREEQFNSTYRVVSVLTVLHQDWLNGKEYKCKVSNKGLPSSIEKTISKAKGQPREPQVYTLPPSQEEMTKNQVSLTCLVKGFYPSDIAVEWESNGQPENNYKTTPPVLDSDGSFFLYSRLTVDKSRWQEGNVFSCSVMHEALHNHYTQKSLSLSLGK
heavy 2: EVQLVESGGGLVQPGGSLRLSCAASGFTFGSYGMAWVRQAPGKGLEWVSAISGSGDYTNYADSVKRRFTISRDNSKNTLYLQMSSLRAEDTAVYYCAKEKTGTTGYLYSGMDVWGQGTTVTVSSASTKGPSVFPLAPCSRSTSESTAALGCLVKDYFPEPVTVSWNSGALTSGVHTFPAVLQSSGLYSLSSVVTVPSSSLGTKTYTCNVDHKPSNTKVDKRVESKYGPPCPPCPAPPVAGPSVFLFPPKPKDTLMISRTPEVTCVVVDVSQEDPEVQFNWYVDGVEVHNAKTKPREEQFNSTYRVVSVLTVLHQDWLNGKEYKCKVSNKGLPSSIEKTISKAKGQPREPQVYTLPPSQEEMTKNQVSLTCLVKGFYPSDIAVEWESNGQPENNYKTTPPVLDSDGSFFLYSRLTVDKSRWQEGNVFSCSVMHEALHNRFTQKSLSLSPGK
light: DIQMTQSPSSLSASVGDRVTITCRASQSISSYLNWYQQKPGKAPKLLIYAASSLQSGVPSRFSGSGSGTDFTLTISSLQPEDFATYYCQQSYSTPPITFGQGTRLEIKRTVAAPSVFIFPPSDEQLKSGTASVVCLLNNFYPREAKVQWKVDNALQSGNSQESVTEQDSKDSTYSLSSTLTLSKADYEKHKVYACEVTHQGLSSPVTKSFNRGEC
notes: D1 arm from 21519P2, D2 arm from 21520P2, common light chain; also called CD40xCD40 (21519 x 21520)

% max blockade relative to no mAb, IL-10, donor 1 [4]: 81.5%
% max blockade relative to no mAb, IL-10, donor 2 [4]: 94.5%
% max blockade relative to no mAb, IL-10, donor 3 [4]: 90.6%
% max blockade relative to no mAb, TNFa, donor 1 [5]: 53.5%
% max blockade relative to no mAb, TNFa, donor 2 [5]: 68.4%
% max blockade relative to no mAb, TNFa, donor 3 [5]: 69.1%
% max blockade relative to no mAb, IL-6, donor 1 [6]: 83.5%
% max blockade relative to no mAb, IL-6, donor 2 [6]: 92%
% max blockade relative to no mAb, IL-6, donor 3 [6]: 92%
100 nM Ag Bound [2]: 56.6 RU
Kd [2]: 0.163 nM
koff [2]: 0.000125 s⁻¹
kon [2]: 769000 M⁻¹ s⁻¹
t1/2 [2]: 92.3 min
B4: REGN16432 (bispecific antibody, human IgG4 S228P, kappa)
heavy 1: EVQLVESGGGLVQPGGSLRLSCAASGFTFSSYAMNWVRQAPGKGLEWVSIISGTIGKTYYADSVKGRFTISRDNSKNTLYLQMNSLRGEDTAVYYCAKDTERDITGSPFDYWGQGTLVTVSSASTKGPSVFPLAPCSRSTSESTAALGCLVKDYFPEPVTVSWNSGALTSGVHTFPAVLQSSGLYSLSSVVTVPSSSLGTKTYTCNVDHKPSNTKVDKRVESKYGPPCPPCPAPPVAGPSVFLFPPKPKDTLMISRTPEVTCVVVDVSQEDPEVQFNWYVDGVEVHNAKTKPREEQFNSTYRVVSVLTVLHQDWLNGKEYKCKVSNKGLPSSIEKTISKAKGQPREPQVYTLPPSQEEMTKNQVSLTCLVKGFYPSDIAVEWESNGQPENNYKTTPPVLDSDGSFFLYSRLTVDKSRWQEGNVFSCSVMHEALHNHYTQKSLSLSLGK
heavy 2: B3 heavy 2
light: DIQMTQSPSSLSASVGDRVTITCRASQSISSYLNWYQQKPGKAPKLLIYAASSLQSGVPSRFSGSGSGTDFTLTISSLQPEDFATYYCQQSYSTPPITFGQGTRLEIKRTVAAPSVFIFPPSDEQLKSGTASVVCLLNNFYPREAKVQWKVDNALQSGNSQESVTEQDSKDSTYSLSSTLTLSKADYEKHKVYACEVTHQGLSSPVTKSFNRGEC
notes: D1 arm from 30027P2, D2 arm from 21520P2, common light chain; also called CD40xCD40 (30027 x 21520)

Kd [7]: 3.16 nM
koff [7]: 0.00333 s⁻¹
kon [7]: 1.05e+06 M⁻¹ s⁻¹
t1/2 [7]: 3.5 min
100 nM Ag Bound [2]: 66.5 RU
Kd [2]: 6 nM
koff [2]: 0.00372 s⁻¹
kon [2]: 620000 M⁻¹ s⁻¹
t1/2 [2]: 3.1 min
100 nM Ag Bound [3]: 0.2 RU
B5: 30027P2 (antibody, human IgG4 S228P, kappa, V domains shown)
VH: EVQLVESGGGLVQPGGSLRLSCAASGFTFSSYAMNWVRQAPGKGLEWVSIISGTIGKTYYADSVKGRFTISRDNSKNTLYLQMNSLRGEDTAVYYCAKDTERDITGSPFDYWGQGTLVTVSS
VL: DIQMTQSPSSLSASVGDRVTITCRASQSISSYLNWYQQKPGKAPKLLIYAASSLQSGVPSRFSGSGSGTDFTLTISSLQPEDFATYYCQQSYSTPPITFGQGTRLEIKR
notes: parental bivalent anti-CD40 mAb; common light chain; also called H4sH30027P2
